{"source": "patent US20100130423", "key": {"[1]": {"target": "LnK PH domain (from V5-LnK mutant constructs) (UniProt Q9UQQ2)"}, "[2]": {"target": "adaptor protein LnK, wild type (UniProt Q9UQQ2)"}}, "data": [{"substance": "JAK2 V617F", "values": [{"measurement": "JAK2 V671F autophosphorylation levels", "setting": "[1]", "value": "The LnK PH domain associates with and inhibits JAK2 V671F"}, {"measurement": "tyrosine phosphorylation of LnK (anti-phosphotyrosine immunoprecipitation, LnK Western blot)", "setting": "[2]", "value": "the phosphorylation levels of LnK itself are higher in 293T cells expressing JAK2 V617F compared with cells expressing JAK2 WT"}]}]}
